Assay results: PMC6098011, “Insights into degradation mechanism of N-end rule substrates by p62/SQSTM1 autophagy adapter” (Nature Communications, 2018)
Changes are numbered by the printed parent chain. Primed or numbered codes have the meaning given here. No end group written: not given here. FITC′ = fluorescein isothiocyanate label

Tests used:
[1] = molecular target: the molecule itself; experiment: SEC-MALS; physiological pH 7.4; buffer not stated
[2] = molecular target: the molecule itself; experiment: SEC-MALS; 50 mM sodium acetate pH 4.5, 100 mM NaCl, 1 mM TCEP
[3] = molecular target: the molecule itself; experiment: SEC-MALS; 50 mM Tris pH 8.0, 100 mM NaCl, 1 mM TCEP; 1-3 mg/ml injected; Superdex 200 Increase or Superose 6 Increase
[4] = molecular target: T1, R-BiP peptide (REEEDK–FITC); experiment: fluorescence polarisation; FITC-labeled peptide 100 nM, p62 construct titrated 400 nM to 3 mM; 50 mM Tris pH 8.0, 100 mM NaCl, 1 mM DTT; 384-well; details: both partners purified
T1 construct: Arg attached to the new N-terminus of cleaved BiP (N-terminal arginylation, R*); BiP/GRP78 from E19 (E19b-E20b-E21b-D22b printed); also called FITC-labeled R-BiP peptide; FITC-labeled R-BiP/GRP78 peptide
T1 peptide: REEEDK-{FITC′}

B1: MBP-fused PB1-ZZ of p62 (residues 1-181) wild type (domain or fragment)
chain: not shown
notes: p62/SQSTM1, human, PB1-ZZ residues 1-181; Oligomeric state depends on pH (hexameric or higher at pH 8.0, polymer at pH 6.0, about a trimer at pH 4.5); also called MBP-PB1-ZZ WT; PB1-ZZ WT
- stoichiometry N [1]: ≥ 10
- stoichiometry N [2]: ~3
- stoichiometry N [3]: ≥ 6

B2: MBP-PB1-ZZ N132L (domain or fragment)
chain: not shown
notes: p62/SQSTM1, human, PB1-ZZ residues 1-181
- fold reduction of affinity against WT [4]: ~30 fold

B3: MBP-PB1-ZZ D149R (domain or fragment, human, UniProt Q13501 1-181, looked up)
chain: MASLTVKAYLLGKEDAAREIRRFSFCCSPEPEAEAEAAAGPGPCERLLSRVAALFPALRPGGFQAHYRDEDGDLVAFSSDEELTMAMSYVKDDIFRIYIKEKKECRRDHRPPCAQEAPRNMVHPNVICDGCNGPVVGTRYKCSVCPDYRLCSVCEGKGLHRGHTKLAFPSPFGHLSEGFSH
notes: as for B2
- fold reduction of affinity against WT [4]: ~30 fold

B4: MBP-PB1-ZZ D69A (domain or fragment)
chain: not shown
notes: p62/SQSTM1, human, PB1-ZZ residues 1-181; also called monomeric PB1-ZZ mutant
- fold higher affinity of PB1-ZZ WT than of this mutant [4]: > 10 fold

B5: MBP-PB1-ZZ K7A (domain or fragment)
chain: not shown
notes: as for B4
- fold higher affinity of PB1-ZZ WT than of this mutant [4]: > 10 fold

B6: MBP-PB1-ZZ D147R (domain or fragment, human, UniProt Q13501 1-181, looked up)
chain: B3 chain with D147R, R149D
notes: as for B2
- fold reduction of affinity against WT [4]: ~30 fold

B7: MBP-PB1-ZZ D129N (domain or fragment, human, UniProt Q13501 1-181, looked up)
chain: B3 chain with D129N, R149D
notes: as for B2
- fold reduction of affinity against WT [4]: ~30 fold

B8: Flag-ZZ (ZZ-domain of p62 with the flag-tag) (domain or fragment)
chain: not shown
- Kd [4]: > 800 µM
